Substitutions are numbered along the chain they refer to. Where two headings read alike, the source gives them in different places.
Experiments:
[1] = molecular target: T1, human VEGFA165 (human, UniProt P15692-4 27-191); assay: ELISA, coated human VEGFA165, anti-His detection
T1 construct: Bought protein from two suppliers, treated as one molecule; the supplier is named under assay; also called antigen VEGFA
Procedure: (§1) Antigen human VEGFA165 (label-free, purchased from Sino Biological, Cat. No.: HPLC-10008-HNAH, hereinafter referred to as VEGFA) was diluted with ELISA coating buffer to a final concentration of 0.3 μg/mL and added to a microplate at 100 μL/well for coating at 4° C. overnight. […] The solution used for antibody dilution was PBS containing 0.1% Tween-20 (pH 7.4), i.e., PBST. After being incubated at 37° C. for 1 h, the microplate was washed 3 times with PBST, and a dilution of His-Tag murine monoclonal antibody (purchased from Proteintech, Cat. No.: 66005-1-Ig) was added. The plate was further incubated at 37° C. for 1 h and washed again. Subsequently, a dilution of HRP-labeled goat anti-mouse IgG antibody (HRP-conjugated Affinipure Goat Anti-Mouse IgG (H+L), purchased from Proteintech, Cat. No.: SA00001-1) was added, and the plate was incubated at room temperature for 45 min. After the plate was washed, 100 μL of TMB (purchased from Tiangen Biotech, Cat. No.: PA107-01) was added to each well for color development at 37° C. for 15 min, followed by the addition of 50 μL of stopping solution. The absorbance at 450 nm (OD450) was measured using a microplate reader.

[2] = molecular target: T1, human VEGFA165; assay: ELISA, coated human VEGFA165, anti-His detection; remark: listed apart in the source
Procedure: as §1
The experimental procedure was the same as that described in “2.

[3] = molecular target: T1, human VEGFA165; assay: competitive ELISA, coated VEGFA, competitor VEGFR2-ECD-Fc 1 nM
[4] = molecular target: T1, human VEGFA165; assay: ELISA, coated human VEGFA165, anti-His detection; remark: listed apart in the source
Procedure: as §1
The purified bivalent humanized nanobodies were evaluated for their VEGFA binding activity, and the experimental procedure was the same as that described in “2.

T1 sequence (P15692 other isoform, or with tags, fused parts or gaps limits assumed): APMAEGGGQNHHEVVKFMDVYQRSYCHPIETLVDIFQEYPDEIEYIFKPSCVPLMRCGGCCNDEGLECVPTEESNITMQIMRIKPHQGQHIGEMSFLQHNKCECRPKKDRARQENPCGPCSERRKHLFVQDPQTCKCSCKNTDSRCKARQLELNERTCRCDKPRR

B1: 2V31-9GS (VHH)
chain: QLQLVESGGGSVQPGGSLRLSCEVSGRTFASYTMGWFRQAPGKEREFVVAISKGGYKYDAVSLEARFTISKDNTKNTVYLQMNSLKPEDTAVYYCAGTRAYGSSRLRLAKTYEYWGQGTQVTVSSGGGGSGGGSQLQLVESGGGSVQPGGSLRLSCEVSGRTFASYTMGWFRQAPGKEREFVVAISKGGYKYDAVSLEARFTISKDNTKNTVYLQMNSLKPEDTAVYYCAGTRAYGSSRLRLAKTYEYWGQGTQVTVSS
notes: Tandem bivalent nanobody
**Q.** B1 was tested. Which EC50 [1] did it give?
**A.** 0.31 nM

**Q.** What about the EC50 [2] of the same binder?
**A.** 0.31 nM

B2: 2V43-9GS (VHH)
chain: B1 chain with A30T, A60S, K110N, A164T, A194S, K244N
notes: Tandem bivalent nanobody
**Q.** For B2, which EC50 [1] is on record?
**A.** 0.17 nM

**Q.** What about the EC50 [2] of the same binder?
**A.** 0.17 nM

B3: V1-V15 (bispecific antibody)
chain: B1 chain with A30S, A60S, G97A, K110D, A194S, K244E
**Q.** With B3 as the binder, how does the EC50 [1] read?
**A.** 0.29 nM

**Q.** And the IC50 [3]?
**A.** 3.8 nM

**Q.** And the “Maximum inhibition rate (%)” value [3]?
**A.** 87.8%

B4: V1-V30 (bispecific antibody)
chain: B1 chain with A30S, A60S, G97A, K110D, A164S, E178G, G231A
**Q.** For B4, which EC50 [1] is on record?
**A.** 0.31 nM

**Q.** What about the IC50 [3] of the same binder?
**A.** 2.84 nM

**Q.** And the “Maximum inhibition rate (%)” value [3]?
**A.** 91.1%

B5: V1-V40 (bispecific antibody)
chain: B1 chain with A30S, A60S, G97A, K110D, A164T, D193N, G231A
**Q.** For B5, which EC50 [1] is on record?
**A.** 0.42 nM

**Q.** What about the IC50 [3] of the same binder?
**A.** 3.74 nM

**Q.** What about the “Maximum inhibition rate (%)” value [3] of the same binder?
**A.** 88.5%

B6: V15-V30 (bispecific antibody)
chain: B1 chain with A60S, K110E, A164S, E178G, G231A
**Q.** B6 was tested. Which EC50 [1] did it give?
**A.** 0.41 nM

**Q.** What about the IC50 [3] of the same binder?
**A.** 3.22 nM

**Q.** And the “Maximum inhibition rate (%)” value [3]?
**A.** 91.2%

B7: V15-V40 (bispecific antibody)
chain: B1 chain with A60S, K110E, A164T, D193N, G231A
**Q.** How did the EC50 [1] turn out when B7 was run?
**A.** 0.26 nM

**Q.** What about the IC50 [3] of the same binder?
**A.** 4.06 nM

**Q.** And the “Maximum inhibition rate (%)” value [3]?
**A.** 90.1%

B8: V30-V40 (bispecific antibody)
chain: B1 chain with A30S, E44G, G97A, A164T, D193N, G231A
**Q.** Which results are given for B8?
**A.** EC50 [1]: 0.31 nM; IC50 [3]: 3.32 nM; Maximum inhibition rate (%) [3]: 89.8%

B9: 2V1-DP-9GS (VHH)
chain: EVQLVESGGGLVQPGGSLRLSCAVSGRTFSSYTMGWFRQAPGKEREFVVAISKGGYKYDSVSLEARFTISRDNSKNTVYLQMNSLRPEDTAVYYCAATRAYGSSRLRLADTYEYWGQGTLVTVSSGGGGSGGGSEVQLVESGGGLVQPGGSLRLSCAVSGRTFSSYTMGWFRQAPGKEREFVVAISKGGYKYDSVSLEARFTISRDNSKNTVYLQMNSLRPEDTAVYYCAATRAYGSSRLRLADTYEYWGQGTLVTVSS
notes: Tandem bivalent humanized nanobody
**Q.** For B9, which EC50 [4] is on record?
**A.** 0.23 nM

B10: V1 (VHH)
VHH: QLQLVESGGGSVQPGGSLRLSCEVSGRTFSSYTMGWFRQAPGKEREFVVAISKGGYKYDSVSLEARFTISKDNTKNTVYLQMNSLKPEDTAVYYCAATRAYGSSRLRLADTYEYWGQGTQVTVSS
notes: Monovalent nanobody; tag not described here, the ELISA detects a His tag
**Q.** B10 was tested. Which EC50 [2] did it give?
**A.** 0.52 nM

B11: V31 (VHH)
VHH: B10 VHH with S30A, S60A, A97G, D110K
notes: as for B10
**Q.** For B11, which EC50 [2] is on record?
**A.** 0.77 nM

Reference: patent US20260234232A1 (QUAERITE BIOPHARM RESEARCH BEIJING, published 2026)
